According to US20090162945:

B1: Recombinant full-length histidine-tagged human JMJD2a (protein)
chain: MASESETLNPSARIMTFYPTMEEFRNFSRYIAYIESQGAHRAGLAKVVPPKEWKPRASYDDIDDLVIPAPIQQLVTGQSGLFTQYNIQKKAMTVREFRKIANSDKYCTPRYSEFEELERKYWKNLTFNPPIYGADVNGTLYEKHVDEWNIGRLRTILDLVEKESGITIEGVNTPYLYFGMWKTSFAWHTEDMDLYSINYLHFGEPKSWYSVPPEHGKRLERLAKGFFPGSAQSCEAFLRHKMTLISPLMLKKYGIPFDKVTQEAGEFMITFPYGYHAGFNHGFNCAESTNFATRRWIEYGKQAVLCSCRKDMVKISMDVFVRKFQPERYKLWKAGKDNTVIDHTLPTPEAAEFLKESELPPRAGNEEECPEEDMEGVEDGEEGDLKTSLAKHRIGTKRHRVCLEIPQEVSQSELFPKEDLSSEQYEMTECPAALAPVRPTHSSVRQVEDGLTFPDYSDSTEVKFEELKNVKLEEEDEEEEQEAAALDLSVNPASVGGRLVFSGSKKKSSSSLGSGSSRDSISSDSETSEPLSCRAQGQTGVLTVHSYAKGDGRVTVGEPCTRKKGSAARSFSERELAEVADEYMFSLEENKKSKGRRQPLSKLPRHHPLVLQECVSDDETSEQLTPEEEAEETEAWAKPLSQLWQNRPPNFEAEKEFNETMAQQAPHCAVCMIFQTYHQVEFGGFNQNCGNASDLAPQKQRTKPLIPEMCFTSTGCSTDINLSTPYLEEDGTSILVSCKKCSVRVHASCYGVPPAKASEDWMCSRCSANALEEDCCLCSLRGGALQRANDDRWVHVSCAVAILEARFVNIAERSPVDVSKIPLPRFKLKCIFCKKRRKRTAGCCVQCSHGRCPTAFHVSCAQAAGVMMQPDDWPFVVFITCFRHKIPNLERAKGALQSITAGQKVISKHKNGRFYQCEVVRLTTETFYEVNFDDGSFSDNLYPEDIVSQDCLQFGPPAEGEVVQVRWTDGQVYGAKFVASHPIQMYQVEFEDGSQLVVKRDDVYTLDEELPKRVKSRLSVASDMRFNEIFTEKEVKQEKKRQRVINSRYREDYIEPALYRAIME
B2: Recombinant full-length amino-terminally hexahistidine-tagged human GASC1 (protein)
chain: MEVAEVESPLNPSCKIMTFRPSMEEFREFNKYLAYMESKGAHRAGLAKVIPPKEWKPRQCYDDIDNLLIPAPIQQMVTGQSGLFTQYNIQKKAMTVKEFRQLANSGKYCTPRYLDYEDLERKYWKNLTFVAPIYGADINGSIYDEGVDEWNIARINTVLDVVEEECGISIEGVNTPYLYFGMWKTTFAWHTEDMDLYSINYLHFGEPKSWYAIPPEHGKRLERLAQGFFPSSSQGCDAFLRHKMTLISPSVLKKYGIPFDKITQEAGEFMITFPYGYHAGFNHGFNCAESTNFATVRWIDYGKVAKLCTCRKDMVKISMDIFVRKFQPDRYQLWKQGKDIYTIDHTKPTPASTPEVKAWLQRRRKVRKASRSFQCARSTSKRPKADEEEEVSDEVDGAEVPNPDSVTDDLKVSEKSEAAVKLRNTEASSEEESSASRMQVEQNLSDHIKLSGNSCLSTSVTEDIKTEDDKAYAYRSVPSISSEADDSIPLSTGYEKPEKSDPSELSWPKSPESCSSVAESNGVLTEGEESDVESHGNGLEPGEIPAVPSGERNSFKVPSIAEGENKTSKSWRHPLSRPPARSPMTLVKQQAPSDEELPEVLSIEEEVEETESWAKPLIHLWQTKSPNFAAEQEYNATVARMKPHCAICTLLMPYHKPDSSNEENDARWETKLDEVVTSEGKTKPLIPEMCFIYSEENIEYSPPNAFLEEDGTSLLISCAKCCVRVHASCYGIPSHEICDGWLCARCKRNAWTAECCLCNLRGGALKQTKNNRWAHVMCAVAVPEVRFTNVPERTQIDVGRIPLQRLKLKCIFCRHRVKRVSGACIQCSYGRCPASFHVTCAHAAGVLMEPDDWPYVVNITCFRHKVNPNVKSKACEKVISVGQTVITKHRNTRYYSCRVMAVTSQTFYEVMFDDGSFSRDTFPEDIVSRDCLKLGPPAEGEVVQVKWPDGKLYGAKYFGSNIAHMYQVEFEDGSQIAMKREDIYTLDEELPKRVKARFSTASDMRFEDTFYGADIIQGERKRQRVLSSRFKNEYVADPVYRTFLKSSFQKKCQKRQ

How the values were obtained:
[1] = molecular target: Synthetic 43-mer histone H3 (1-40) peptide tri-methylated at lysine 9, …(me3)…-Tyr-Cys-(Ttds)-Lys-biotin
[2] = molecular target: Synthetic 43-mer histone H3 (1-40) peptide tri-methylated at lysine 27, …-Tyr-Cys-(Ttds)-Lys-biotin
Chain of Synthetic 43-mer histone H3 (1-40) peptide tri-methylated at lysine 27, …-Tyr-Cys-(Ttds)-Lys-biotin (chain, as listed by the source): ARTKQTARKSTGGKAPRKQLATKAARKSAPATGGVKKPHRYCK

Chain of Synthetic 43-mer histone H3 (1-40) peptide tri-methylated at lysine 9, …(me3)…-Tyr-Cys-(Ttds)-Lys-biotin (chain, as listed by the source): as above

Row | Protein | demethylation of synthetic H3K9 peptides, western blotting [1] | demethylation assay, immunoblotting of the methylation mark [2] | demethylation of H3K9me3 peptide, mass spectrometry [1] | formaldehyde release (demethylation-FDH-coupled assay) [1] | in vitro demethylation of synthetic peptide, western blotting [1]
1 | B1 | GASC1 and its homolog JMJD2A appeared to have a comparable ability to demethylate synthetic H3K9 substrates | – | – | – | –
2 | B2 | – | tri-methylated H3K27 and tri-methylated H4K20 appeared to be unaffected by GASC1 treatment | the majority of H3K9me3 peptide (approximately 80%) was converted to di- and mono-methylated H3-K9 after incubation of with GASC1 | recombinant His-tagged GASC1 released formaldehyde | Following 30 minutes incubation of pure tri-methylated H3K9 with GASC1 almost all tri-methyl H3K9 was converted to di- and mono-methyl H3K9
